Assay results reported in the supplement of paper PMC7877785.
± gives the uncertainty stated by the source.

Assay: self-splicing fitness, log relative to wild type (ln ratio); higher = more splicing; Tetrahymena group I intron in knt gene, E. coli kanamycin selection, DiMSum; sequences stand for … in CUCUCU…GGAGGGAAAAGUUAUCAGGCAUGCACCUGGUAGCUAGUCUUUAAACCAAUAGAUUGCAUCGGUUUAAAAGGCAAGACCGUCAAAUUGCGGGAAAGGGGUCAACAGCCGUUCAGUACCAAGUCUCAGGGGAAACUUUGAGAUGGCCUUGCAAAGGGUAUGGUAAUAAGCUGACGGACAUGGUCCUAACCACGCAGCCAAGUCCUAAGUCAACAGAUCUUCUGUUGAUAUGGAUGCAGUUCACAGACUAAAUGUCGGUCGGGGAAGAUGUAUUCUUCUCAUAAGAUAUAGUCGGACCUCUCCUUAAUGGGAGCUAGCGGAUGAAGUGAUGCAACACUGGAGCCGCUGGGAACUAAUUUGUAUGCGAAAGUAUAUUGAUUAGUUUUGGAGUACUCGUGGUCG
In short: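 The eight P1ex-region nucleotides of an intron in the knt kanamycin-resistance gene on pET-22b(+) were all randomised and the library put into E. coli BL21(DE3). Six replicate transformations were grown overnight at 37°C or 30°C on LB agar with or without 25 μg/mL kanamycin, together with 100 μg/mL carbenicillin, 50 μM IPTG and 0.2% rhamnose. Colonies were pooled and amplicon-sequenced on an Illumina HiSeq 2500. Fitness from DiMSum is the error-weighted combination of wild-type-normalised replicate fold changes, kanamycin over none.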

Row | Sequence | self-splicing fitness (ln) (30 °C) | self-splicing fitness (ln) (37 °C)
1 | UGAAAGCAAUAUUACGGUGC | -2.02 ± 0.38 | -2.61 ± 0.36
2 | UGAAAGCAAUAUUACGGUUA | -0.156 ± 0.07 | -0.217 ± 0.064
3 | UGAAAGCAAUAUUACGUAGC | -3.52 ± 0.37 | -1.5 ± 0.36
4 | UGAAAGCAAUAUUACGUCAU | -4.25 ± 0.22 | -1.77 ± 0.14
5 | UGAAAGCAAUAUUACGUCGA | -0.893 ± 0.08 | -0.374 ± 0.1
6 | UGAAAGCAAUAUUACGUCUA | -0.288 ± 0.12 | 0.146 ± 0.11
7 | UGAAAGCAAUAUUACGUGAC | -3.86 ± 0.29 | -2.01 ± 0.17
8 | UGAAAGCAAUAUUACGUGGG | -3.67 ± 0.2 | -2.4 ± 0.17
9 | UGAAAGCAAUAUUACGUGGU | -3.22 ± 0.17 | -2.55 ± 0.23
10 | UGACAGCAAUAUUACGAACC | -2.97 ± 0.25 | -1.37 ± 0.22
11 | UGACAGCAAUAUUACGACGC | -1.83 ± 0.13 | -1.25 ± 0.19
12 | UGACAGCAAUAUUACGACUA | -0.585 ± 0.087 | 0.416 ± 0.1
13 | UGACAGCAAUAUUACGCAUU | -3.85 ± 0.18 | -2.4 ± 0.14
14 | UGACAGCAAUAUUACGCCAC | -3.66 ± 0.32 | -1.43 ± 0.27
15 | UGACAGCAAUAUUACGCCAU | -3.25 ± 0.29 | -1.51 ± 0.26
16 | UGACAGCAAUAUUACGCGAG | -2.36 ± 0.11 | -2.06 ± 0.077
17 | UGACAGCAAUAUUACGCGCA | -0.495 ± 0.072 | 0.187 ± 0.077
18 | UGACAGCAAUAUUACGCGUU | -3.69 ± 0.16 | -2.75 ± 0.17
19 | UGACAGCAAUAUUACGGAUA | -1.25 ± 0.095 | -0.669 ± 0.11
20 | UGACAGCAAUAUUACGGCAG | -0.0451 ± 0.065 | 0.0375 ± 0.079
21 | UGACAGCAAUAUUACGGGCU | -2.75 ± 0.16 | -1.57 ± 0.097
22 | UGACAGCAAUAUUACGGGGU | -4.41 ± 0.31 | -2.38 ± 0.23
23 | UGACAGCAAUAUUACGGGUA | -1.07 ± 0.055 | -0.216 ± 0.062
24 | UGACAGCAAUAUUACGGUAA | -1.85 ± 0.12 | -0.692 ± 0.11
25 | UGACAGCAAUAUUACGGUUA | -0.746 ± 0.073 | -0.364 ± 0.065
26 | UGACAGCAAUAUUACGUAAC | -4.4 ± 0.46 | -2.38 ± 0.19

Row | Sequence | self-splicing fitness (ln) (30 °C) | self-splicing fitness (ln) (37 °C)
27 | UGACAGCAAUAUUACGUCCC | -0.969 ± 0.17 | -1.51 ± 0.36
28 | UGACAGCAAUAUUACGUCCG | -0.00105 ± 0.12 | -0.342 ± 0.13
29 | UGACAGCAAUAUUACGUUCG | -0.885 ± 0.068 | -0.194 ± 0.075
30 | UGAGAGCAAUAUUACGAAAG | -5.04 ± 0.28 | -2.86 ± 0.25
31 | UGAGAGCAAUAUUACGACUC | -2.96 ± 0.47 | -2.73 ± 0.45
32 | UGAGAGCAAUAUUACGAGAC | -4.44 ± 0.46 | -2.59 ± 0.29
33 | UGAGAGCAAUAUUACGAGAG |  | -1.16 ± 0.36
34 | UGAGAGCAAUAUUACGAGUG | -4.04 ± 0.29 | -2.93 ± 0.26
35 | UGAGAGCAAUAUUACGAUGA |  | -2.48 ± 0.3
36 | UGAGAGCAAUAUUACGCGGA | -3.34 ± 0.47 | -1.49 ± 0.46
37 | UGAGAGCAAUAUUACGCUGA | -2.42 ± 0.32 | -1.53 ± 0.28
38 | UGAGAGCAAUAUUACGGCGA | -3.53 ± 0.34 | -0.434 ± 0.23
39 | UGAGAGCAAUAUUACGGGCU | -2.32 ± 0.37 | -2.6 ± 0.38
40 | UGAGAGCAAUAUUACGGUCA | -0.647 ± 0.1 | -0.589 ± 0.13
41 | UGAGAGCAAUAUUACGUAAA | -4.31 ± 0.39 | -2.43 ± 0.45
42 | UGAGAGCAAUAUUACGUAAU | -3.22 ± 0.21 | -2.22 ± 0.26
43 | UGAGAGCAAUAUUACGUAGU | -2.29 ± 0.24 | -2.41 ± 0.36
44 | UGAGAGCAAUAUUACGUAUG | -1.55 ± 0.13 | -1.66 ± 0.22
45 | UGAGAGCAAUAUUACGUGUG | -2.9 ± 0.14 | -2.28 ± 0.12
46 | UGAGAGCAAUAUUACGUUAG | -3.68 ± 0.37 | -3.31 ± 0.4
47 | UGAGAGCAAUAUUACGUUCC |  | -2.11 ± 0.47
48 | UGAGAGCAAUAUUACGUUCU | -3.3 ± 0.25 | -2.03 ± 0.27
49 | UGAGAGCAAUAUUACGUUGU | -3.89 ± 0.19 | -2.91 ± 0.23
50 | UGAUAGCAAUAUUACGAACG | -0.462 ± 0.15 | -0.0562 ± 0.2
51 | UGAUAGCAAUAUUACGAAGG | -2.96 ± 0.15 | -2.26 ± 0.2
52 | UGAUAGCAAUAUUACGACAC |  | -2.22 ± 0.45

Row | Sequence | self-splicing fitness (ln) (30 °C) | self-splicing fitness (ln) (37 °C)
53 | UGAUAGCAAUAUUACGACUA | -0.635 ± 0.13 | 0.407 ± 0.17
54 | UGAUAGCAAUAUUACGAGAU | -3.87 ± 0.43 | -1.92 ± 0.3
55 | UGAUAGCAAUAUUACGAUAG | -0.826 ± 0.28 | -0.505 ± 0.32
56 | UGAUAGCAAUAUUACGCAAU | -2.87 ± 0.49 | -1.62 ± 0.36
57 | UGAUAGCAAUAUUACGCAUU | -2.52 ± 0.17 | -2.11 ± 0.17
58 | UGAUAGCAAUAUUACGCCAU | -2.82 ± 0.26 | -3.2 ± 0.3
59 | UGAUAGCAAUAUUACGCGAG | -1.66 ± 0.17 | -0.803 ± 0.13
60 | UGAUAGCAAUAUUACGCGCA | -0.408 ± 0.091 | 0.2 ± 0.1
61 | UGAUAGCAAUAUUACGCGCU | -0.577 ± 0.11 | -0.36 ± 0.14
62 | UGAUAGCAAUAUUACGGCCC | -2.82 ± 0.48 | -0.72 ± 0.42
63 | UGAUAGCAAUAUUACGGCGU | -2.1 ± 0.18 | -1.22 ± 0.16
64 | UGAUAGCAAUAUUACGGGAC | -4.2 ± 0.31 | -2.54 ± 0.25
65 | UGAUAGCAAUAUUACGGUCA | -0.441 ± 0.073 | -0.29 ± 0.071
66 | UGAUAGCAAUAUUACGGUUU | -2.91 ± 0.097 | -1.38 ± 0.11
67 | UGAUAGCAAUAUUACGUACA | -0.211 ± 0.083 | -0.0617 ± 0.12
68 | UGAUAGCAAUAUUACGUGAU | -3.09 ± 0.11 | -2.43 ± 0.17
69 | UGAUAGCAAUAUUACGUUCC | -1.67 ± 0.24 | -1.1 ± 0.4
70 | UGCAAGCAAUAUUACGAGUC | -2.87 ± 0.15 | -1.83 ± 0.14
71 | UGCAAGCAAUAUUACGAGUU | -1.88 ± 0.084 | -0.67 ± 0.098
72 | UGCAAGCAAUAUUACGCAGG | -4.36 ± 0.33 | -3.48 ± 0.37
73 | UGCAAGCAAUAUUACGCAGU | -3.63 ± 0.3 | -3.35 ± 0.39
74 | UGCAAGCAAUAUUACGCAUG | -3.63 ± 0.21 | -2.32 ± 0.29
75 | UGCAAGCAAUAUUACGCCGG | -2.06 ± 0.13 | -0.615 ± 0.17
76 | UGCAAGCAAUAUUACGCCUC | -1.98 ± 0.46 | -1.23 ± 0.23
